In publication doi:10.1101/2020.12.15.422910:

Biological target: OsBOR3_(Δ1-642) (Oryza sativa)
Test: cryo-EM structure

## OsBOR3_(Δ1-642) (domain or fragment)
  stoichiometry N: 2
